# Positions count from the first letter of the chain named. Names may count otherwise. “And” between values parts separate entries of the source, which are not always exact repeats. Identical values can stand only once. Like-named read-outs stand apart in the source and are kept apart here.
# B1: ssDNA loop (ssDNA)
# DNA: TTTTTTTTTTTTTTTTTTTTTTCCCACAACAAGTCCAACGCAAACGGCCACCCCCCCAACAACAATTTTT
# B2: YhaM W51A (Bacillus subtilis), OB domain variant (enzyme, UniProt O07521 1-314, looked up)
# chain: MAKGIMLHEVGEQVDQYLLIKSSTKGIASNGKPFLTLMLQDQSGDIEAKLADAKQSDEVTYAPQTIVKVVGDVHHYRGRTQLKLRNIRPVSEQENVNIDDFLETAPIPKNEMMDTITQYIFEMKNPNIQRITRFLVKKHEAEFMDYPAATKNHHEFVSGLAYHVVSMLNLAKAIADLYPSLDRDLLYAGVILHDLGKVKELSGPVSTSYTVEGNLLGHISIMVTELSKAAEELQIDSEEVLILQHLILSHHGKAEWGSPKPPMVKEAEILHYIDNLDAKMNMMDRALERVKPGEYTERVFALENRSFYKPTFHK
# B3: YhaM Y76A (Bacillus subtilis), OB domain variant (enzyme, UniProt O07521 1-314, looked up)
# chain: B2 chain with A51W, Y76A
# B4: YhaM H193A/D194A (Bacillus subtilis), HD motif variant (enzyme, UniProt O07521 1-314, looked up)
# chain: B2 chain with A51W, H193A, D194A
# What was measured:
# [1] = target: YhaM ortholog of Staphylococcus aureus (SaYhaM) (Staphylococcus aureus); assay: SEC
# YhaM dimers = target: T1, YhaM dimers (Bacillus subtilis, UniProt O07521 1-314); assay: BLI
# T1 sequence: B2 chain with A51W
# mass photometry [2] = target: the molecule itself; assay: mass photometry
# mass photometry [3] = target: the molecule itself; assay: mass photometry; remark: listed apart in the source
# mass photometry [4] = target: the molecule itself; assay: mass photometry; remark: listed apart in the source
# YhaM H193A/D194A = target: T2, YhaM H193A/D194A (Bacillus subtilis, UniProt O07521 1-314, H193A;D194A); assay: BLI
# T2 sequence: B2 chain with A51W, H193A, D194A
# YhaM (BsYhaM) = target: T3, YhaM (BsYhaM) (Bacillus subtilis (strain DK1042 / NCIB …, UniProt O07521 1-314)); assay: BLI
# T3 sequence: B2 chain with A51W
molecule,measurement,setting,value
YhaM ortholog of Staphylococcus aureus (SaYhaM) (enzyme),stoichiometry N,[1],6
B1,binding result,YhaM dimers,binds
B2,stoichiometry N,mass photometry [2],6
same,stoichiometry N,mass photometry [3],2
B3,stoichiometry N,mass photometry [2],6
B4,stoichiometry N,mass photometry [2],4 and 6
same,stoichiometry N,mass photometry [4],2
GTTAATTAAGTTTTAACCTTTAAGCTGTAATAGGGAGTTT (ssDNA) [Bli DNA 40-nt],binding result,YhaM H193A/D194A,binds
same,binding result,YhaM (BsYhaM),binds
